Test results taken from the Human Domainome abundance scans (Beltran et al. 2025).
± gives the uncertainty stated by the source.

B1: Unconventional myosin-Ie, residues 1051 to 1108; numbered along this chain, Q12965 (parent)
chain: PQVPQCKALYAYDAQDTDELSFNANDIIDIIKEDPSGWWTGRLRGKQGLFPNNYVTKI

Variants of: B1
Test: abundance fitness (aPCA) (normalised: wild type 0, dead -1); higher = more abundant; growth selection in yeast, the domain comes from the species named
Details: Homo sapiens

Abundance fitness: each site, then its substitutions
A14: K -0.195 ± 0.053, L -0.98 ± 0.13, D -0.797 ± 0.19, Q -0.345 ± 0.08, M -0.42 ± 0.12, R -0.377 ± 0.035, T -0.374 ± 0.11, I -0.901 ± 0.31, V -0.871 ± 0.1, H -0.741 ± 0.26, G -0.173 ± 0.037, F -0.782 ± 0.32, C -0.284 ± 0.059, N -0.452 ± 0.19, E -0.695 ± 0.15, S -0.188 ± 0.061, W -1.13 ± 0.31, P -0.371 ± 0.042
S21: W -0.559 ± 0.13, H -0.931 ± 0.45, F -0.938 ± 0.27, L -0.939 ± 0.11, A -0.263 ± 0.057, K -0.266 ± 0.079, N -0.175 ± 0.093, Q -0.325 ± 0.087, C -0.219 ± 0.032, V -0.891 ± 0.1, T -0.058 ± 0.042, E -0.247 ± 0.039, M -0.803 ± 0.15, G -0.358 ± 0.059, D -0.217 ± 0.036, Y -0.756 ± 0.28
Q15: P -0.484 ± 0.18, G -0.157 ± 0.031, K -0.186 ± 0.11, W -0.408 ± 0.037, L -0.173 ± 0.04, N 0.037 ± 0.11, I -0.172 ± 0.079, D -0.145 ± 0.087, R -0.035 ± 0.03, E -0.23 ± 0.087, F -0.291 ± 0.21, A -0.087 ± 0.03, H -0.28 ± 0.13, T -0.054 ± 0.061, M -0.059 ± 0.064, S -0.261 ± 0.083, Y -0.312 ± 0.047, V -0.193 ± 0.038, C -0.239 ± 0.11
N23: T -0.01 ± 0.03, D -0.047 ± 0.036, I -0.081 ± 0.03, H -0.048 ± 0.032, A -0.01 ± 0.031, E 0.005 ± 0.041, G -0.048 ± 0.027, F -0.076 ± 0.03, M -0.026 ± 0.047, Q -0.002 ± 0.04, P -0.788 ± 0.041, W -0.38 ± 0.054, S 0.004 ± 0.027, K -0.008 ± 0.045, C -0.062 ± 0.033, L -0.065 ± 0.028, Y -0.155 ± 0.033
A24: V -0.05 ± 0.034, I -0.04 ± 0.061, W -0.481 ± 0.077, R -0.068 ± 0.044, S -0.108 ± 0.053, D -0.477 ± 0.15, N -0.648 ± 0.29, T -0.012 ± 0.041, Y -0.528 ± 0.18, E -0.052 ± 0.054, H -0.06 ± 0.12, Q -0.164 ± 0.07, F -0.106 ± 0.1, C -0.213 ± 0.1, M -0.034 ± 0.074, K -0.04 ± 0.045
L20: P -1.11 ± 0.11, I -0.05 ± 0.087, H -0.977 ± 0.49, Q -1.12 ± 0.15, C -0.708 ± 0.19, K -0.836 ± 0.13, M -0.214 ± 0.046, V -0.879 ± 0.11, T -1.04 ± 0.22, N -0.764 ± 0.35, E -0.807 ± 0.13, W -1.01 ± 0.066, S -0.879 ± 0.14, D -0.893 ± 0.17, G -1.03 ± 0.11
D18: A -0.162 ± 0.056, F -0.238 ± 0.12, M -0.091 ± 0.045, P 0.089 ± 0.085, I -0.197 ± 0.14, Y -0.078 ± 0.076, N -0.055 ± 0.077, T -0.1 ± 0.074, L -0.063 ± 0.049, E 0.052 ± 0.054, S 0.009 ± 0.046, R -0.065 ± 0.037, Q -0.152 ± 0.044, H -0.279 ± 0.086, G -0.056 ± 0.038, W -0.2 ± 0.042, V -0.257 ± 0.044, C -0.05 ± 0.059
L9: Y -0.701 ± 0.25, R -0.291 ± 0.042, Q -0.268 ± 0.074, W -0.588 ± 0.07, G -0.624 ± 0.049, K -0.187 ± 0.041, V -0.148 ± 0.039, S -0.3 ± 0.059, E -0.149 ± 0.059, A -0.315 ± 0.052, I -0.375 ± 0.13, H -0.367 ± 0.073, T -0.491 ± 0.05, D -0.451 ± 0.078, C -0.222 ± 0.068, M -0.213 ± 0.075, P -0.822 ± 0.17, F -0.743 ± 0.36, N -0.232 ± 0.063
Y10: L -0.16 ± 0.049, V -0.121 ± 0.04, Q -0.054 ± 0.057, G -0.309 ± 0.033, N -0.472 ± 0.1, F -0.151 ± 0.069, C -0.14 ± 0.058, I -0.364 ± 0.091, W -0.092 ± 0.065, E -0.217 ± 0.05, H -0.135 ± 0.072, R 0.056 ± 0.036, D -0.247 ± 0.068, P -0.821 ± 0.2, A -0.186 ± 0.045, M -0.158 ± 0.039, K -0.043 ± 0.058, T -0.218 ± 0.055, S -0.166 ± 0.031
D29: H -0.193 ± 0.12, C -0.298 ± 0.086, F -0.408 ± 0.062, E -0.072 ± 0.044, A -0.205 ± 0.043, G -0.478 ± 0.045
T17: P -0.273 ± 0.092, A 0.026 ± 0.048, F -0.287 ± 0.097, G -0.057 ± 0.044, E -0.272 ± 0.09, S -0.077 ± 0.05, H -0.137 ± 0.19, N -0.423 ± 0.14, W -0.091 ± 0.035, Q -0.078 ± 0.055, C -0.128 ± 0.063, L -0.239 ± 0.06, Y -0.238 ± 0.088, K -0.18 ± 0.082, D -0.007 ± 0.078, R -0.111 ± 0.049, M -0.043 ± 0.043
E19: V -0.382 ± 0.06, I -0.548 ± 0.22, Q -0.125 ± 0.079, M -0.055 ± 0.076, S -0.159 ± 0.054, P -0.925 ± 0.063, A -0.288 ± 0.069, R -0.189 ± 0.038, W -0.359 ± 0.039, C -0.123 ± 0.074, N -0.277 ± 0.093, L -0.435 ± 0.081, F -0.095 ± 0.078, Y 0.191 ± 0.074, D -0.54 ± 0.09, T -0.132 ± 0.066, G -0.018 ± 0.04, K -0.136 ± 0.073
A8: W -1.03 ± 0.31, V -0.714 ± 0.11
I27: S -0.655 ± 0.087, Y -0.19 ± 0.042, L -0.15 ± 0.047, D -0.618 ± 0.038, K -0.228 ± 0.042, M -0.156 ± 0.065, E -0.432 ± 0.058, W -0.466 ± 0.048, F -0.274 ± 0.099, A -0.47 ± 0.057, C -0.261 ± 0.059, T -0.26 ± 0.074, N -0.233 ± 0.093, G -0.927 ± 0.062, V -0.085 ± 0.049, Q -0.327 ± 0.077, R -0.374 ± 0.049, P -0.681 ± 0.24, H -0.306 ± 0.069
F22: R -0.953 ± 0.11, D -0.748 ± 0.45, E -0.858 ± 0.21, M -0.441 ± 0.055, W -0.996 ± 0.14, S -0.766 ± 0.073, Y -0.714 ± 0.41, G -0.954 ± 0.095, H -0.727 ± 0.27, V -0.472 ± 0.079, T -0.793 ± 0.21, C -0.895 ± 0.13, P -0.834 ± 0.26, I -0.409 ± 0.073, K -0.754 ± 0.18, N -0.816 ± 0.28
D16: F -0.19 ± 0.057, P -0.798 ± 0.076, M -0.098 ± 0.054, I -0.557 ± 0.16, C -0.057 ± 0.055, V -0.169 ± 0.056, Y -0.093 ± 0.088, G -0.156 ± 0.047, Q -0.22 ± 0.07, N -0.052 ± 0.052, A -0.055 ± 0.058, K -0.069 ± 0.07, H -0.206 ± 0.12, W -0.231 ± 0.049, E -0.097 ± 0.053, T -0.024 ± 0.058, L -0.271 ± 0.046
D26: W -0.987 ± 0.2, R -0.948 ± 0.089, P -0.981 ± 0.42, F -0.726 ± 0.27, V -0.855 ± 0.12, Q -0.263 ± 0.11, C -0.957 ± 0.28, S -0.522 ± 0.065, E -0.015 ± 0.046, H -0.94 ± 0.42, Y -0.776 ± 0.19, M -0.86 ± 0.12, G -0.986 ± 0.094, N -0.676 ± 0.2, K -1.07 ± 0.3
A11: N 0.022 ± 0.17, Q 0.045 ± 0.062, S -0.023 ± 0.058, F -0.388 ± 0.12, C -0.193 ± 0.1, D 0.102 ± 0.096, E -0.059 ± 0.059, M -0.149 ± 0.037, H -0.013 ± 0.078, T -0.218 ± 0.076, G -0.186 ± 0.055, P 0.019 ± 0.062, R 0.025 ± 0.03, L -0.308 ± 0.056
N25: E -0.117 ± 0.064, V -0.753 ± 0.073, G -0.046 ± 0.041, K -0.198 ± 0.064, H -0.19 ± 0.082, D -0.048 ± 0.068, Y -0.541 ± 0.11, A -0.129 ± 0.054, I -0.833 ± 0.075, F -0.302 ± 0.063, W -0.224 ± 0.056, T -0.215 ± 0.065, R -0.142 ± 0.033, M -0.151 ± 0.051, Q -0.058 ± 0.054, P -0.878 ± 0.12, S -0.088 ± 0.038
I28: T -0.386 ± 0.29, V -0.472 ± 0.45, L 0.237 ± 0.46
Y12: Q -0.887 ± 0.081, E -0.396 ± 0.12, R -0.107 ± 0.037, M -0.761 ± 0.15, F -0.377 ± 0.13, G -0.937 ± 0.072, H -0.274 ± 0.12, A -0.803 ± 0.096, V -0.891 ± 0.047, I -0.966 ± 0.31, C -0.968 ± 0.086, T -0.836 ± 0.15, S -0.909 ± 0.087, L -0.892 ± 0.08, K -0.54 ± 0.12, W -0.15 ± 0.039
D13: S -0.189 ± 0.055, Q -0.018 ± 0.067, H -0.16 ± 0.057, I -0.082 ± 0.082, G -0.304 ± 0.056, E -0.067 ± 0.044, N -0.084 ± 0.094, C -0.134 ± 0.06, A -0.156 ± 0.051, P -0.399 ± 0.083, R -0.165 ± 0.04, Y -0.209 ± 0.039, V -0.161 ± 0.056, F -0.293 ± 0.057, M -0.16 ± 0.05, T 0.012 ± 0.065, W -0.368 ± 0.056
